Our source for the Km values is article PMC5537072, “Anthranilate phosphoribosyltransferase from the hyperthermophilic archaeon Thermococcus kodakarensis shows maximum activity with zinc and forms a unique dimeric structure” (FEBS Open Bio, 2017).

Data set [1] relates to Nc1ccccc1C(=O)O. Put plainly: purified protein. The class given is biochemical, Thermococcus kodakarensis. The conditions noted are these: 1 mM PRPP, 100 μM ZnCl2, 100 mM Tris/HCl pH 8.5, 55 °C.
Substrate in data set [2]: O=P(O)(O)OC[C@H]1O[C@H](OP(=O)(O)OP(=O)(O)O)[C@H](O)[C@@H]1O
The data set is described as follows: purified protein. The note with it: 4 μM anthranilate, 100 μM ZnCl2, 100 mM Tris/HCl pH 8.5, 55 °C. It is filed as biochemical, Thermococcus kodakarensis.

For the molecule TkTrpD (Thermococcus kodakarensis KOD1), the Km in data set [1] was determined as 2.2 µM.

B1: TkTrpD (Thermococcus kodakarensis KOD1) (protein)
chain: MSLLAKIVDGKNLSFEEAYELFNELKGSDGVLIGAYLAALQTKGYTGEELAGLARAMRDSAVKLDLGKVADTAGTGGDGSSTINVSTASALILSAFTRVAKHGNVSITSKSGSANVLEALGLNIRVSPERAREMVESTNFTFIFAPAYHPALRPIMPVRKALGIKTVFNVIGPLANPADPAYQVVGVNSPELLEPVAEALEFLGVERALVVHGSGMDEVSPHRETLVLEVGNGVERYTLSPEDFGIEPVKPLPCSSPEESAARIKAVLGGSGRREDRDFILVNASAALYASGVAEDFREGLEMAREALGQGMLEKLEEIACLSKS
notes: homodimer
Regarding B1, the Km in data set [2] turned out to be 250 µM.

A word on the Km: it is the concentration of substrate that gives half-maximal velocity.
